Biological target: T1, Protein L (recombinant protein L immobilized on a matrix; HiTrap Protein L, GE Healthcare) (Finegoldia magna)
T1 construct: also called Protein L resin; Finegoldia magna Protein L
T1 chain: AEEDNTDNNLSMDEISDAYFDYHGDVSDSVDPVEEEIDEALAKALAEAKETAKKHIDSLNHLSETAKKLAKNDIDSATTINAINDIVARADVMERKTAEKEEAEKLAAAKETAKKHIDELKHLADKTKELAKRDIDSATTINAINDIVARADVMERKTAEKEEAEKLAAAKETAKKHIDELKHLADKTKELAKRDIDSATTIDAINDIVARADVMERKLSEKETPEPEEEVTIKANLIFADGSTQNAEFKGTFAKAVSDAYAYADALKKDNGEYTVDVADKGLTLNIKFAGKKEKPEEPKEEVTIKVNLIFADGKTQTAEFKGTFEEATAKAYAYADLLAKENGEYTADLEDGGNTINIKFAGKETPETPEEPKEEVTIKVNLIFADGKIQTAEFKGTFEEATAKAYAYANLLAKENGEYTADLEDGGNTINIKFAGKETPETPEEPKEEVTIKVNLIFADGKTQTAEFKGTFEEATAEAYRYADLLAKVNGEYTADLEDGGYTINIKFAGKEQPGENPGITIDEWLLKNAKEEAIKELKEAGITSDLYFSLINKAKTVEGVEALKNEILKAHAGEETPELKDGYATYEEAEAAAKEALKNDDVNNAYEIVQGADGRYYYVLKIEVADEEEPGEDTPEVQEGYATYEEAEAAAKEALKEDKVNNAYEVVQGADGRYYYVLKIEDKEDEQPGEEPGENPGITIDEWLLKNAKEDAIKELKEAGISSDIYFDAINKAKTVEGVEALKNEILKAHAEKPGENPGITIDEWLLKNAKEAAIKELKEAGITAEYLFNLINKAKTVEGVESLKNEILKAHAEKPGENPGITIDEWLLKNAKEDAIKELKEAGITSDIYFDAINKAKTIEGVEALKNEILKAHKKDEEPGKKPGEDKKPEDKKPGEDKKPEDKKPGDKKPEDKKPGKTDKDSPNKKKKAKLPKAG
Assay: HiTrap Protein L (5 mL) chromatography of purified antibody, step elution at pH 3.5, 3.0 and 2.5, A280 trace
Procedure: 10 mL of the supernatant was loaded onto the HiTrap Protein L column. […] The column was washed with PBS and specifically bound material was eluted sequentially with 0.1 M glycine-HCl pH 3.5, 3.0 and 2.5 and neutralized with a few drops of 2M Tris pH 9.0. The column was washed using 15 mM sodium hydroxide.

B1: IgG1-2F8-F405L-S12P (antibody, name in EU numbering)
heavy: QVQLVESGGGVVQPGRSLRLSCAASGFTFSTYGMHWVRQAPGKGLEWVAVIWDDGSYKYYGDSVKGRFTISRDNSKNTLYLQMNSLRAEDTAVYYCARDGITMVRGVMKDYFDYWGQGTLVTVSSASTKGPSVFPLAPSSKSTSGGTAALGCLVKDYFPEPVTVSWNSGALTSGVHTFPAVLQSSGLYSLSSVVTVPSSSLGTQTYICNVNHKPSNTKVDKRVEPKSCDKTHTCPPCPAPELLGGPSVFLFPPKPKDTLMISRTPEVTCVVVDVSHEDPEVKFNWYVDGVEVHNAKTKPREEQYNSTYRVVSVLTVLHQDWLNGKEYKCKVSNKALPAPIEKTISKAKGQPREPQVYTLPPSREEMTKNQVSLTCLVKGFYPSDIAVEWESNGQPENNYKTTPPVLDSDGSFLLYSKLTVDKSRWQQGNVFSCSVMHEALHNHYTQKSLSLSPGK
light: AIQLTQSPSSLPASVGDRVTITCRASQDISSALVWYQQKPGKAPKLLIYDASSLESGVPSRFSGSESGTDFTLTISSLQPEDFATYYCQQFNSYPLTFGGGTKVEIKRTVAAPSVFIFPPSDEQLKSGTASVVCLLNNFYPREAKVQWKVDNALQSGNSQESVTEQDSKDSTYSLSSTLTLSKADYEKHKVYACEVTHQGLSSPVTKSFNRGEC
notes: IgG1m(f), kappa; also called IgG-2F8-F405L-S12P; IgG1-2F8-S12P
Does B1 bind?
Result: no binding

Reference: patent US20210269509A1 (Genmab, published 2021)
